The values that follow come from PMC3326319.

Data set [1] addresses T1, PhNob1Zn (Pyrococcus horikoshii, UniProt O58440 121-161).
T1 chain: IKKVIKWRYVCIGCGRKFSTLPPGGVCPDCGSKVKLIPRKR
The data set is described as follows: fluorescence anisotropy. For orientation: Polarisation of emitted light reports the rotation of a fluorescent probe.

Data set [2] has as its target T1, PhNob1Zn. The data set is described as follows: NMR titration.
The target in the next data set is T2, PhNob1 (Pyrococcus horikoshii, UniProt O58440 1-161).
T2 sequence: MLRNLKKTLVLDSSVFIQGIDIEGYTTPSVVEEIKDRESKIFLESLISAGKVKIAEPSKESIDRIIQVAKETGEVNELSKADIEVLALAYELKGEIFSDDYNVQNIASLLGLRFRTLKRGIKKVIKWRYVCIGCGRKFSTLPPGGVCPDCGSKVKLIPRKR
The data set is described as follows: fluorescence anisotropy.

The term Kd denotes the concentration at which binding is half-saturated. Low values mean a tighter complex, high ones a looser complex.

Consider UACAGGGCCCAUUGGGGCCCUGUA (structured_RNA) [ScH16 (stabilized)], for which the Kd with PhNob1Zn [1] came to 1500 ± 200 nM.
Take GACUGCCGGCGAUAAGCCGGAGGAAG (structured_RNA) [PhH40 unlabeled (gel filtration, NMR)]: in the data set with PhNob1Zn [2], the Kd was less than 1000 nM.
As to CCGGCGAUAAGCCGG (structured_RNA) [PhH40short (H40S)], the affinity in the data set with PhNob1Zn [1], expressed as Kd, was 3100 ± 200 nM.
Consider GACUGCCGGCGAUAAGCCGGAGGAAG (structured_RNA) [PhH40 (helix 40)], for which the Kd with PhNob1 came out at 2000 ± 100 nM; in the data set with PhNob1Zn [1], 2300 ± 100 nM.
